According to the supplement of paper PMC9112550, “Optimization of the antimicrobial peptide Bac7 by deep mutational scanning” (BMC Biology, 2022):

Test system: Escherichia coli TOP10
Test: shrunken log2 fold change of peptide-encoding DNA abundance (4.5 h post-induction vs induction); higher = less antimicrobial activity (less host growth inhibition)
Conditions: time post-induction: 4.5 h; library: site-saturation at positions 5, 18, 19, 20
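Further: peptides expressed intracellularly from a pBAD plasmid library in pooled LB shake-flask culture, induced with 0.3% L-arabinose, DNA abundance read by NGS, three biological replicates, DESeq2 with apeglm shrinkage.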

Sequence	shrunken log2 fold change
RRIRDRPPRLPRPRPRPTTGPRP	0.673
RRIRDRPPRLPRPRPRPTYEPRP	0.127
RRIRDRPPRLPRPRPRPTYNPRP	-0.365
RRIRDRPPRLPRPRPRPVACPRP	0.35
RRIRDRPPRLPRPRPRPVAEPRP	1.16
RRIRDRPPRLPRPRPRPVAGPRP	0.851
RRIRDRPPRLPRPRPRPVFHPRP	-0.707
RRIRDRPPRLPRPRPRPVFRPRP	0.18
RRIRDRPPRLPRPRPRPVHEPRP	-0.0506
RRIRDRPPRLPRPRPRPVHVPRP	0.0158
RRIRDRPPRLPRPRPRPVMSPRP	-0.257
RRIRDRPPRLPRPRPRPVNKPRP	-0.0502
RRIRDRPPRLPRPRPRPVNNPRP	0.0566
RRIRDRPPRLPRPRPRPVNVPRP	-0.96
RRIRDRPPRLPRPRPRPVPGPRP	0.214
RRIRDRPPRLPRPRPRPVPKPRP	0.32
RRIRDRPPRLPRPRPRPVQDPRP	0.0144
RRIRDRPPRLPRPRPRPVQYPRP	-0.0992
RRIRDRPPRLPRPRPRPVRHPRP	0.646
RRIRDRPPRLPRPRPRPVRIPRP	0.18
RRIRDRPPRLPRPRPRPVTFPRP	-0.0135
RRIRDRPPRLPRPRPRPVWRPRP	0.0883

Sequence	shrunken log2 fold change
RRIRDRPPRLPRPRPRPVYTPRP	-0.0405
RRIRDRPPRLPRPRPRPWCEPRP	-0.093
RRIRDRPPRLPRPRPRPWCFPRP	-0.0692
RRIRDRPPRLPRPRPRPWDDPRP	-0.249
RRIRDRPPRLPRPRPRPWFMPRP	0.0254
RRIRDRPPRLPRPRPRPWGFPRP	0.13
RRIRDRPPRLPRPRPRPWINPRP	0.0363
RRIRDRPPRLPRPRPRPWLVPRP	-0.117
RRIRDRPPRLPRPRPRPWMQPRP	-0.0999
RRIRDRPPRLPRPRPRPWPKPRP	-0.149
RRIRDRPPRLPRPRPRPWPMPRP	-0.0379
RRIRDRPPRLPRPRPRPWQIPRP	0.0319
RRIRDRPPRLPRPRPRPWTQPRP	-0.124
RRIRDRPPRLPRPRPRPWVLPRP	-0.00957
RRIRDRPPRLPRPRPRPWWDPRP	0.083
RRIRDRPPRLPRPRPRPYAPPRP	-0.477
RRIRDRPPRLPRPRPRPYDQPRP	-0.473
RRIRDRPPRLPRPRPRPYFCPRP	-0.177
RRIRDRPPRLPRPRPRPYFQPRP	-0.236
RRIRDRPPRLPRPRPRPYGTPRP	-0.234
RRIRDRPPRLPRPRPRPYHCPRP	-0.00783
RRIRDRPPRLPRPRPRPYIHPRP	-0.117

Sequence	shrunken log2 fold change
RRIRDRPPRLPRPRPRPYKFPRP	-0.223
RRIRDRPPRLPRPRPRPYLNPRP	-0.272
RRIRDRPPRLPRPRPRPYMQPRP	-0.0171
RRIRDRPPRLPRPRPRPYNNPRP	-0.489
RRIRDRPPRLPRPRPRPYNTPRP	-0.476
RRIRDRPPRLPRPRPRPYQPPRP	-0.0769
RRIRDRPPRLPRPRPRPYTIPRP	-0.0747
RRIRDRPPRLPRPRPRPYTKPRP	-1.06
RRIRDRPPRLPRPRPRPYTPPRP	-0.95
RRIRDRPPRLPRPRPRPYTYPRP	0.0218
RRIRDRPPRLPRPRPRPYVAPRP	-0.0638
RRIRDRPPRLPRPRPRPYWWPRP	0.021
RRIRDRPPRLPRPRPRPYYLPRP	-0.134
RRIRERPPRLPRPRPRPADEPRP	-0.032
RRIRERPPRLPRPRPRPAEIPRP	-0.207
RRIRERPPRLPRPRPRPAGTPRP	0.346
RRIRERPPRLPRPRPRPAHCPRP	0.0518
RRIRERPPRLPRPRPRPAIFPRP	-0.12
RRIRERPPRLPRPRPRPAISPRP	-0.691
RRIRERPPRLPRPRPRPAKSPRP	0.0676
RRIRERPPRLPRPRPRPAMFPRP	-1.09
RRIRERPPRLPRPRPRPANMPRP	-0.19

Sequence	shrunken log2 fold change
RRIRERPPRLPRPRPRPAPVPRP	0.055
RRIRERPPRLPRPRPRPAQRPRP	0.324
RRIRERPPRLPRPRPRPATRPRP	0.102
RRIRERPPRLPRPRPRPAWRPRP	0.532
RRIRERPPRLPRPRPRPAYPPRP	-0.403
RRIRERPPRLPRPRPRPAYTPRP	-0.284
RRIRERPPRLPRPRPRPCADPRP	0.0245
RRIRERPPRLPRPRPRPCANPRP	-0.158
RRIRERPPRLPRPRPRPCCSPRP	-0.52
RRIRERPPRLPRPRPRPCFQPRP	-0.25
RRIRERPPRLPRPRPRPCFWPRP	-0.176
RRIRERPPRLPRPRPRPCIAPRP	-0.753
RRIRERPPRLPRPRPRPCPKPRP	-0.39
RRIRERPPRLPRPRPRPCQIPRP	-0.193
RRIRERPPRLPRPRPRPCRIPRP	-0.0965
RRIRERPPRLPRPRPRPCRMPRP	-0.363
RRIRERPPRLPRPRPRPCSAPRP	-0.0881
RRIRERPPRLPRPRPRPCSCPRP	-0.00783
RRIRERPPRLPRPRPRPCSEPRP	0.0641
RRIRERPPRLPRPRPRPCTHPRP	-1.36
RRIRERPPRLPRPRPRPCTSPRP	-0.0275
RRIRERPPRLPRPRPRPCVGPRP	-0.278

Sequence	shrunken log2 fold change
RRIRERPPRLPRPRPRPCWAPRP	0.00771
RRIRERPPRLPRPRPRPCWSPRP	0.0767
RRIRERPPRLPRPRPRPCYEPRP	-0.0528
RRIRERPPRLPRPRPRPDANPRP	-0.103
RRIRERPPRLPRPRPRPDDPPRP	-0.157
RRIRERPPRLPRPRPRPDEDPRP	-0.209
RRIRERPPRLPRPRPRPDFKPRP	0.0659
RRIRERPPRLPRPRPRPDGRPRP	-0.03
RRIRERPPRLPRPRPRPDHHPRP	-0.478
RRIRERPPRLPRPRPRPDHLPRP	-0.223
RRIRERPPRLPRPRPRPDIVPRP	-0.158
RRIRERPPRLPRPRPRPDMDPRP	0.0527
RRIRERPPRLPRPRPRPDNIPRP	-0.745
RRIRERPPRLPRPRPRPDPIPRP	-0.224
RRIRERPPRLPRPRPRPDPYPRP	-0.0291
RRIRERPPRLPRPRPRPDQGPRP	0.0476
RRIRERPPRLPRPRPRPDRAPRP	0.00194
RRIRERPPRLPRPRPRPDRCPRP	0.0731
RRIRERPPRLPRPRPRPDSHPRP	-0.6
RRIRERPPRLPRPRPRPDTDPRP	0.0402
RRIRERPPRLPRPRPRPDTEPRP	-0.0215
